This note sets out measurements from PMC10813304.

For assay [1], the target named is ΔLTRIN, truncated C-terminal LTRIN (lymphotoxin β receptor inhibitor), residues 86-210 (Aedes aegypti). The experiment in a line: AUC; sedimentation velocity, 0.5 mg/mL, 25 mM Tris HCl, 50 mM NaCl pH 7.5, 40,000 rpm, 20 °C, continuous c(s) distribution.
The target is the same in assay [2]. The experiment in a line: SEC; Superdex 75 after Ni-NTA and ion exchange; elution against a standard curve (between 44 kDa and 17 kDa); also with Ca2+ or EGTA/EDTA without effect. On the technique in general: Size exclusion chromatography separates by hydrodynamic size, large species first.
Assay [3] shares this target. The experiment in a line: dynamic and static light scattering; DynaPro Nanostar; ΔLTRIN at 1 mg/mL to 20 mg/mL; also with Ca2+ or EGTA without effect.
Assay [4] addresses C133Q ΔLTRIN (Aedes aegypti). Kind of assay: SEC; Superdex 75 after Ni-NTA and ion exchange; elution against a standard curve (between 44 kDa and 17 kDa); also with Ca2+ or EGTA/EDTA without effect.
Assay [5] has as its target C133Q ΔLTRIN (Aedes aegypti). Kind of assay: dynamic and static light scattering; DynaPro Nanostar; ΔLTRIN at 1 mg/mL to 20 mg/mL; also with Ca2+ or EGTA without effect.

For orientation: stoichiometry N means the number of molecules, sites or subunits per partner or assembly.

Take “ΔLTRIN, truncated C-terminal LTRIN (lymphotoxin β receptor inhibitor), residues 86-210 (domain or fragment)”: the stoichiometry N in assay [1], in assay [2] and in assay [3] was 2 throughout.

Take C133Q ΔLTRIN (domain or fragment): the stoichiometry N in assay [4] and in assay [5] was 2 each time.
